Laboratory results as given in US20160200782A1 (MOERAE MATRIX, published 2016).
Blank lines part the entries; values can stand above or below the binder they belong to.

Assays:
Assay in all cases: cell-based or functional assay
IGF-1R(h) = IGF-1R(h) (human, UniProt P08069 959-1367, limits assumed)
Itk(h) = molecular target: T1, Itk(h) (human, UniProt Q08881 1-620, limits assumed)
T1 sequence (looked up): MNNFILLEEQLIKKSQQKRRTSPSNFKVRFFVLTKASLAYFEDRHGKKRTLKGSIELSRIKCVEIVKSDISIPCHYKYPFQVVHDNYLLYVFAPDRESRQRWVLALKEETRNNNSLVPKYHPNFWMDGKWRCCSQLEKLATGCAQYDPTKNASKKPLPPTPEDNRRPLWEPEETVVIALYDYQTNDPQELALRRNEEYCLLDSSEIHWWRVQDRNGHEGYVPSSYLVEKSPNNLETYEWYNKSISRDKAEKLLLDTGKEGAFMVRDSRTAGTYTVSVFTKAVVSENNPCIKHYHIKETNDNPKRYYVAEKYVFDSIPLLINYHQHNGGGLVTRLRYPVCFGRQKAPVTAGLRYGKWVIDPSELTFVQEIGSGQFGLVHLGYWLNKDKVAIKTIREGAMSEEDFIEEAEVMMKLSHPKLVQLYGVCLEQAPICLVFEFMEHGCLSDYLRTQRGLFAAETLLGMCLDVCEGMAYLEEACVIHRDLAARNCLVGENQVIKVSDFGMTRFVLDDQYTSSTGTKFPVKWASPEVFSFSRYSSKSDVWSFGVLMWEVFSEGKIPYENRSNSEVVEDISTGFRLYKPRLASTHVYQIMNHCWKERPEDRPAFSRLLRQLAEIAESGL

AMPKa1(h) = AMPKa1(h) (human, UniProt Q13131 1-559, limits assumed)
Chain of AMPKa1(h) (Q13131 whole entry): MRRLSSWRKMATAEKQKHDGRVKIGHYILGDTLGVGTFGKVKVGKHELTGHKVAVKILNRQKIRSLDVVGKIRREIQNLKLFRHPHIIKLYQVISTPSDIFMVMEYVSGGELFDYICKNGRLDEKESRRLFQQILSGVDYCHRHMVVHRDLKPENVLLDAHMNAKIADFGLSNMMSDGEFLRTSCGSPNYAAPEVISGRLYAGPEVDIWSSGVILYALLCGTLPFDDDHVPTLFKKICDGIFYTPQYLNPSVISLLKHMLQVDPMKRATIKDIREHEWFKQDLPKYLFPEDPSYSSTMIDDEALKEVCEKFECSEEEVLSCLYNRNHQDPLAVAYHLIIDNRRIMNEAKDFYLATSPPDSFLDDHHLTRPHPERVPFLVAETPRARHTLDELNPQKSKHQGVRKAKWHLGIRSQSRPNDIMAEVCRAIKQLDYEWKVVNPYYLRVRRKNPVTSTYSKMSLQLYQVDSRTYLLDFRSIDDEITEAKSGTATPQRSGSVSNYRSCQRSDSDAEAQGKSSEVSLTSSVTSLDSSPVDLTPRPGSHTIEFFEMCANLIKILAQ

NEK11(h) = molecular target: T2, NEK11(h) (human, UniProt Q8NG66 1-645, limits assumed)
T2 sequence (looked up): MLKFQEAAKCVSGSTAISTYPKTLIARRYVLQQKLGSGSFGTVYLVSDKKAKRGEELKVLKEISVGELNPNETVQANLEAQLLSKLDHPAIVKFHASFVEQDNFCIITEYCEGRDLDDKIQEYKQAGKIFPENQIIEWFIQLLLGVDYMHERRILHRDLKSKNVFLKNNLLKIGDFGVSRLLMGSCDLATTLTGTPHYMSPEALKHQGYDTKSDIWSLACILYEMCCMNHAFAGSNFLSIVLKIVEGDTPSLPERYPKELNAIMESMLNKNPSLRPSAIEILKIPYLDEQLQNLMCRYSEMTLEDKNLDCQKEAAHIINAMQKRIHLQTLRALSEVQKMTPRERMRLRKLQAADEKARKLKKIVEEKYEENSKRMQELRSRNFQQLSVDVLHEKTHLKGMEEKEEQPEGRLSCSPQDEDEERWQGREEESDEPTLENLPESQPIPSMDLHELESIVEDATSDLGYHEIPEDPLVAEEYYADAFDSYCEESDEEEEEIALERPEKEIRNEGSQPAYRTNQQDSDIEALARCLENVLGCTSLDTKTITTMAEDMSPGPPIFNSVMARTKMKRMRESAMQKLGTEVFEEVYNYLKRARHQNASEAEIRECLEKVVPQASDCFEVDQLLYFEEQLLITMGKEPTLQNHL

PKCβII(h) = PKCβII(h) (human, UniProt P05771-2 1-673)
Chain of PKCβII(h) (P05771 other isoform, or with tags, fused parts or gaps limits assumed): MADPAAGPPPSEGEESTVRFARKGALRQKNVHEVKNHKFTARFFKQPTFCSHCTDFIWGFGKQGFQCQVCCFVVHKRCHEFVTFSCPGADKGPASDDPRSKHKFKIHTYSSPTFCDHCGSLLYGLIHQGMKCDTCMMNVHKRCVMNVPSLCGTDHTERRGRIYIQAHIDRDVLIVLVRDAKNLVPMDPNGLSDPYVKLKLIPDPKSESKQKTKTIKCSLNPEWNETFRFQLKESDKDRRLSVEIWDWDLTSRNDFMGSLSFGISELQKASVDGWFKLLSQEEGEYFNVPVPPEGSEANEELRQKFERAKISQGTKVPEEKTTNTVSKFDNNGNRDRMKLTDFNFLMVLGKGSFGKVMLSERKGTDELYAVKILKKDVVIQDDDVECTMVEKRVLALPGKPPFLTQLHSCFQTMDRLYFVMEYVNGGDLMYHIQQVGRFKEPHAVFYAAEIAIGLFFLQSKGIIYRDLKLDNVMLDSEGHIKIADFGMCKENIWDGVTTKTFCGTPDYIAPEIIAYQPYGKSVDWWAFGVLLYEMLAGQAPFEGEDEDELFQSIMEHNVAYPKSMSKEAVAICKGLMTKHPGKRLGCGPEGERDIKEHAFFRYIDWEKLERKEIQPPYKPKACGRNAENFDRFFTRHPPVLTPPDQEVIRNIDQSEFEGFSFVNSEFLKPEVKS

BrSK1(h) = molecular target: T3, BrSK1(h) (human, UniProt Q8TDC3 1-778, limits assumed)
T3 sequence (looked up): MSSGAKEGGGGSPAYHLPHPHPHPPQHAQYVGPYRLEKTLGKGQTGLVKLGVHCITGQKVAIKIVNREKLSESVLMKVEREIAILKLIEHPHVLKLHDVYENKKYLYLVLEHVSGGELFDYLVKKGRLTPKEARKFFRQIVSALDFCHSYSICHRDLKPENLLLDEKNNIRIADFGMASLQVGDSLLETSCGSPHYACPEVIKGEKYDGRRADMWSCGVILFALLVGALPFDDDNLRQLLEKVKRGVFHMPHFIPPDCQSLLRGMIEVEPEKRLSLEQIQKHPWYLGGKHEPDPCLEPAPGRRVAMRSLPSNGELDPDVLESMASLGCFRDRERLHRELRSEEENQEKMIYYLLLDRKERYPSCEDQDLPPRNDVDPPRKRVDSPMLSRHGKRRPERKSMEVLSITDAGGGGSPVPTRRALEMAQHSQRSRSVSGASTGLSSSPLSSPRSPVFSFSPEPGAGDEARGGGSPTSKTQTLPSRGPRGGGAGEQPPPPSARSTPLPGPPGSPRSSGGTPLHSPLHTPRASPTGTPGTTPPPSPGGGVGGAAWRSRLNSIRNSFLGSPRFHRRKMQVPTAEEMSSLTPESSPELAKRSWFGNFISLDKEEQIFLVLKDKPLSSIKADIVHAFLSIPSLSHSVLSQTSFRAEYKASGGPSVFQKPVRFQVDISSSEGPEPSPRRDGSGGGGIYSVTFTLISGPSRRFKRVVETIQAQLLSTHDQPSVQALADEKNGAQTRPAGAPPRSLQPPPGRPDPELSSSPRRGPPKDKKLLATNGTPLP

DMPK(h) = molecular target: T4, DMPK(h) (human, UniProt Q09013 1-629, limits assumed)
T4 sequence (looked up): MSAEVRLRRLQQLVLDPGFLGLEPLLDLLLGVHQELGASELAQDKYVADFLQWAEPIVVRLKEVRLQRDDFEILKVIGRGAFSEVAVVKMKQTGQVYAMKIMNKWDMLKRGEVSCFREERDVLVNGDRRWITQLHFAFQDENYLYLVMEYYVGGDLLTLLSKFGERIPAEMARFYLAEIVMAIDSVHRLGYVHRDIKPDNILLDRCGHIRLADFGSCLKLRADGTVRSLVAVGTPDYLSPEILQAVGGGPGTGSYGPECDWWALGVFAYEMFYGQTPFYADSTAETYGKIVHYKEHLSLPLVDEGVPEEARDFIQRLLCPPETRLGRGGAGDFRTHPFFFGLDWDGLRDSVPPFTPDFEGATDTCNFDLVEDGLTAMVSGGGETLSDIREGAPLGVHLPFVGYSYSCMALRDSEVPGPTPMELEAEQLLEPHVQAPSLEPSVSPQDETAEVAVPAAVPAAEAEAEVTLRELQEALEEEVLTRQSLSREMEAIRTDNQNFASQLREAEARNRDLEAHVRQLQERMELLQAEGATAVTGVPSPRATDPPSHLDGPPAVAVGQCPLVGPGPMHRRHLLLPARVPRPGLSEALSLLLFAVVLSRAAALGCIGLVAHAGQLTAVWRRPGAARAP
Further: test concentration or dose not given here.

Chain of IGF-1R(h) (P08069 959-1367 limits assumed): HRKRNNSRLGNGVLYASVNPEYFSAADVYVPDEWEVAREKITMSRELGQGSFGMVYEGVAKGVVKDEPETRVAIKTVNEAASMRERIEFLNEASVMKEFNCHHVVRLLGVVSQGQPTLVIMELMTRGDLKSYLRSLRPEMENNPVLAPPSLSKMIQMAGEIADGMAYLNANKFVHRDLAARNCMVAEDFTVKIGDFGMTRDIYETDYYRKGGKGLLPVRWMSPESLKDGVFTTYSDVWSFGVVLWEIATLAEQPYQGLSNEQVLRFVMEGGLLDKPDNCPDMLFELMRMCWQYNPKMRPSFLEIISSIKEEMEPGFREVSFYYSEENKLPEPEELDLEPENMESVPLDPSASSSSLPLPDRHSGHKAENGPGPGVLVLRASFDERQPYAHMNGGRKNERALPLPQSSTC

% activity (IGF-1R(h)): 119% | % activity (Itk(h)): 77% | % activity (AMPKa1(h)): 71% | % activity (NEK11(h)): 53% | % activity (PKCβII(h)): 82% | % activity (BrSK1(h)): 67% | % activity (DMPK(h)): 59%
B1: MMI-0300 (peptide)
peptide: FAKLAARLYRKALARQLGVAA

% activity (IGF-1R(h)): 90% | % activity (Itk(h)): 63% | % activity (AMPKa1(h)): 87% | % activity (NEK11(h)): 33% | % activity (PKCβII(h)): 75% | % activity (BrSK1(h)): 76% | % activity (DMPK(h)): 54%
B2: MMI-0400 (peptide)
peptide: KAFAKLAARLYRKALARQLGVAA
